Data reported in patent US9580733B2, “Methods of producing 6-carbon chemicals via methyl-ester shielded carbon chain elongation” (INVISTA North America S.á r.l., priority 2012, dated 2017).

Key:
Type in all cases: biochemical
[1] = ω-transaminase activity assay, reverse direction, 6-aminohexanoate to adipate semialdehyde; settings: cell free extract, 10 mM 6-aminohexanoate, 10 mM pyruvate, 25° C., 24 h, vs empty vector control, FIG. 15
Method: (§1) A nucleotide sequence encoding a His-tag was added to the genes from Chromobacterium violaceum, Pseudomonas aeruginosa, Pseudomonas syringae, Rhodobacter sphaeroides, and Vibrio fluvialis encoding the ω-transaminases of SEQ ID NOs: 7, 8, 9, 10 and 12, respectively (see FIGS. 7E and 7F) such that N-terminal HIS tagged ω-transaminases could be produced. Each of the resulting modified genes was cloned into a pET21a expression vector under control of the T7 promoter and each expression vector was transformed into a BL21[DE3] E. coli host. The resulting recombinant E. coli strains were cultivated at 37° C. in a 250 mL shake flask culture containing 50 mL LB media and antibiotic selection pressure, with shaking at 230 rpm. Each culture was induced overnight at 16° C. using 1 mM IPTG.
(§2) The pellet from each induced shake flask culture was harvested via centrifugation. Each pellet was resuspended and lysed via sonication. The cell debris was separated from the supernatant via centrifugation and the cell free extract was used immediately in enzyme activity assays.
Enzyme activity assays in the reverse direction (i.e., 6-aminohexanoate to adipate semialdehyde) were performed in a buffer composed of a final concentration of 50 mM HEPES buffer (pH=7.5), 10 mM 6-aminohexanoate, 10 mM pyruvate and 100 μM pyridoxyl 5′ phosphate. Each enzyme activity assay reaction was initiated by adding cell free extract of the ω-transaminase gene product or the empty vector control to the assay buffer containing the 6-aminohexanoate and incubated at 25° C. for 24 h, with shaking at 250 rpm. The formation of L-alanine from pyruvate was quantified via RP-HPLC.

[2] = ω-transaminase activity assay, forward direction, adipate semialdehyde to 6-aminohexanoate; settings: cell free extract, 10 mM adipate semialdehyde, 10 mM L-alanine, 25° C., 4 h, vs empty vector control, FIG. 16
Method: as §1, §2
Enzyme activity in the forward direction (i.e., adipate semialdehyde to 6-aminohexanoate) was confirmed for the transaminases of SEQ ID NO 7, SEQ ID NO 8, SEQ ID NO 9, SEQ ID NO 10 and SEQ ID NO 12. Enzyme activity assays were performed in a buffer composed of a final concentration of 50 mM HEPES buffer (pH=7.5), 10 mM adipate semialdehyde, 10 mM L-alanine and 100 μM pyridoxyl 5′ phosphate. Each enzyme activity assay reaction was initiated by adding a cell free extract of the ω-transaminase gene product or the empty vector control to the assay buffer containing the adipate semialdehyde and incubated at 25° C. for 4 h, with shaking at 250 rpm. The formation of pyruvate was quantified via RP-HPLC.

[3] = Carboxylate reductase activity assay, adipate to adipate semialdehyde; settings: enhanced by gene product of sfp, 2 mM adipate, room temperature, 20 min, vs empty vector control, FIG. 10
Method: A nucleotide sequence encoding a HIS-tag was added to the genes from Segniliparus rugosus and Segniliparus rotundus that encode the carboxylate reductases of SEQ ID NOs: 5 and 7, respectively (see FIGS. 7C and 7E), such that N-terminal HIS tagged carboxylate reductases could be produced. Each of the modified genes was cloned into a pET Duet expression vector along with a sfp gene encoding a HIS-tagged phosphopantetheine transferase from Bacillus subtilis, both under the T7 promoter. Each expression vector was transformed into a BL21[DE3] E. coli host and the resulting recombinant E. coli strains were cultivated at 37° C. in a 250 mL shake flask culture containing 50 mL LB media and antibiotic selection pressure, with shaking at 230 rpm. Each culture was induced overnight at 37° C. using an auto-induction media.
The pellet from each induced shake flask culture was harvested via centrifugation. Each pellet was resuspended and lysed via sonication, and the cell debris was separated from the supernatant via centrifugation. […]
Enzyme activity assays (i.e., from adipate to adipate semialdehyde) were performed in triplicate in a buffer composed of a final concentration of 50 mM HEPES buffer (pH=7.5), 2 mM adipate, 10 mM MgCl2, 1 mM ATP and 1 mM NADPH. […] The consumption of NADPH was monitored by absorbance at 340 nm.

[4] = Carboxylate reductase activity assay, adipate semialdehyde to hexanedial; settings: enhanced by gene product of sfp, 2 mM adipate semialdehyde, room temperature, 20 min, vs empty vector control, FIG. 13
Method: The N-terminal His-tagged carboxylate reductase of SEQ ID NO 7 (see Example 4 and FIG. 7E) was assayed using adipate semialdehyde as substrate. The enzyme activity assay was performed in triplicate in a buffer composed of a final concentration of 50 mM HEPES buffer (pH=7.5), 2 mM adipate semialdehyde, 10 mM MgCl2, 1 mM ATP and 1 mM NADPH. The enzyme activity assay reaction was initiated by adding purified carboxylate reductase and phosphopantetheine transferase or the empty vector control to the assay buffer containing the adipate semialdehyde and then incubated at room temperature for 20 min. The consumption of NADPH was monitored by absorbance at 340 nm.

[5] = Pimeloyl-[acp] methyl ester methylesterase activity assay, adipyl-CoA methyl ester to adipyl-CoA; settings: 10 μM enzyme, 5 mM adipyl-CoA methyl ester, pH 7.0, 30° C., 1 h, FIG. 20
Method: A sequence encoding an C-terminal His-tag was added to the gene from Escherichia coli encoding the pimeloyl-[acp] methyl ester methylesterase of SEQ ID NO: 17 (see FIG. 7G) such that C-terminal HIS tagged pimeloyl-[acp] methyl ester methylesterase could be produced. The resulting modified gene was cloned into a pET28b+ expression vector under control of the T7 promoter and the expression vector was transformed into a BL21[DE3] E. coli host. The resulting recombinant E. coli strain was cultivated at 37° C. in a 500 mL shake flask culture containing 100 mL LB media and antibiotic selection pressure, with shaking at 230 rpm. Each culture was induced overnight at 18° C. using 0.3 mM IPTG.
The pellet from each induced shake flask culture was harvested via centrifugation. Each pellet was resuspended and lysed via sonication. The cell debris was separated from the supernatant via centrifugation. The pimeloyl-[acp] methyl ester methylesterase was purified from the supernatant using Ni-affinity chromatography, buffer exchanged and concentrated into 20 mM HEPES buffer (pH=7.5) via ultrafiltration and stored at 4° C.
Enzyme activity assays converting adipyl-CoA methyl ester to adipyl-CoA were performed in triplicate in a buffer composed of a final concentration of 25 mM Tris.HCl buffer (pH=7.0) and 5 [mM] adipyl-CoA methyl ester. […] The formation of adipyl-CoA was quantified via LC-MS.

Row | ω-transaminase activity for converting 6-aminohexanoate to adipate semialdehyde (formation of L-alanine from pyruvate, RP-HPLC) [1] | Molecule | ω-transaminase activity for converting adipate semialdehyde to 6-aminohexanoate (formation of pyruvate, RP-HPLC) [2] | carboxylate reductase activity for converting adipate to adipate semialdehyde (consumption of NADPH, absorbance at 340 nm) [3] | carboxylate reductase activity for converting adipate semialdehyde to hexanedial (consumption of NADPH, absorbance at 340 nm) [4] | conversion of adipyl-CoA methyl ester to adipyl-CoA by pimeloyl-[acp] methyl ester methylesterase (LC-MS) [5]
1 | accepted 6-aminohexanote as substrate | SEQ ID NO 7: Segniliparus rotundus carboxylate reductase (Genbank Accession No. ADG98140.1); in Example 2 the same label is printed for a ω-transaminase (protein, listed as Segniliparus rotundus) MTQSHTQGPQASAAHSRLARRAAELLATDPQAAATLPDPEVVRQATRPGLRLAERVDAILSGYADRPALGQRSFQTVKDPITGRSSVELLPTFDTITYRELRERATAIASDLAHHPQAPAKPGDFLASIGFISVDYVAIDIAGVFAGLTAVPLQTGATLATLTAITAETAPTLFAASIEHLPTAVDAVLATPSVRRLLVFDYRAGSDEDREAVEAAKRKIADAGSSVLVDVLDEVIARGKSAPKAPLPPATDAGDDSLSLLIYTSGSTGTPKGAMYPERNVAHFWGGVWAAAFDEDAAPPVPAINITFLPLSHVASRLSLMPTLARGGLMHFVAKSDLSTLFEDLKLARPTNLFLVPRVVEMLYQHYQSELDRRGVQDGTREAEAVKDDLRTGLLGGRILTAGFGSAPLSAELAGFIESLLQIHLVDGYGSTEAGPVWRDGYLVKPPVTDYKLIDVPELGYFSTDSPHPRGELAIKTQTILPGYYKRPETTAEVFDEDGFYLTGDVVAQIGPEQFAYVDRRKNVLKLSQGEFVTLAKLEAAYSSSPLVRQLFVYGSSERSYLLAVIVPTPDALKKFGVGEAAKAALGESLQKIARDEGLQSYEVPRDFIIETDPFTVENGLLSDARKSLRPKLKEHYGERLEAMYKELADGQANELRDIRRGVQQRPTLETVRRAAAAMLGASAAEIKPDAHFTDLGGDSLSALTFSNFLHDLFEVDVPVGVIVSAANTLGSVAEHIDAQLAGGRARPTFATVHGKGSTTIKASDLTLDKFIDEQTLEAAKHLPKPADPPRTVLLTGANGWLGRFLALEWLERLAPAGGKLITIVRGKDAAQAKARLDAAYESGDPKLAGHYQDLAATTLEVLAGDFSEPRLGLDEATWNRLADEVDFISHPGALVNHVLPYNQLFGPNVAGVAEIIKLAITTRIKPVTYLSTVAVAAGVEPSALDEDGDIRTVSAERSVDEGYANGYGNSKWGGEVLLREAHDRTGLPVRVFRSDMILAHQKYTGQVNATDQFTRLVQSLLATGLAPKSFYELDAQGNRQRAHYDGIPVDFTAESITTLGGDGLEGYRSYNVFNPHRDGVGLDEFVDWLIEAGHPITRIDDYDQWLSRFETSLRGLPESKRQASVLPLLHAFARPGPAVDGSPFRNTVFRTDVQKAKIGAEHDIPHLGKALVLKYADDIKQLGLL | accepted adipate semialdehyde as substrate | accepted adipate as substrate | accepted adipate semialdehyde as substrate | 
2 |  | SEQ ID NO. 17: Escherichia coli pimeloyl-[acp] methyl ester esterase (GenBank Accession No. AAC76437.1), C-terminal His-tagged (protein, listed as Escherichia coli, C-terminal His tag) MNNIWWQTKGQGNVHLVLLHGWGLNAEVWRCIDEELSSHFTLHLVDLPGFGRSRGFGALSLADMAEAVLQQAPDKAIWLGWSLGGLVASQIALTHPERVQALVTVASSPCFSARDEWPGIKPDVLAGFQQQLSDDFQRTVERFLALQTMGTETARQDARALKKTVLALPMPEVDVLNGGLEILKTVDLRQPLQNVSMPFLRLYGYLDGLVPRKVVPMLDKLWPHSESYIFAKAAHAPFISHPAEFCHLLVALKQRV |  |  |  | accepted adipyl-CoA methyl ester as substrate
